Bridge positions count the residues as written; N and C are the ends. Square brackets hold non-standard residues; d marks the D form. Ends that are not written are not given here. Phe(3-COOH) = N[C@@H](Cc1cccc(C(=O)O)c1)C(=O)O; Oic = O=C(O)[C@@H]1C[C@@H]2CCCC[C@@H]2N1; PEG8 = NCCOCCOCCOCCOCCOCCOCCOCCOCCC(=O)O; NMeI = CC[C@H](C)[C@H](NC)C(=O)O; tBuAla = CC(C)(C)C[C@H](N)C(=O)O; Cit = NC(=O)NCCC[C@H](N)C(=O)O; Pen = CC(C)(S)[C@H](N)C(=O)O; 4Amb = NCc1ccc(C(=O)O)cc1; NMeC = CN[C@@H](CS)C(=O)O; Pip = O=C(O)[C@@H]1CCCCN1; NMeA = CN[C@@H](C)C(=O)O; GABA = NCCCC(=O)O; Sar = CNCC(=O)O
T1: recombinant human MASP1 active protease (amino acids 297-699, C-terminal His Tag) (human, UniProt P48740 297-699)
T1 sequence: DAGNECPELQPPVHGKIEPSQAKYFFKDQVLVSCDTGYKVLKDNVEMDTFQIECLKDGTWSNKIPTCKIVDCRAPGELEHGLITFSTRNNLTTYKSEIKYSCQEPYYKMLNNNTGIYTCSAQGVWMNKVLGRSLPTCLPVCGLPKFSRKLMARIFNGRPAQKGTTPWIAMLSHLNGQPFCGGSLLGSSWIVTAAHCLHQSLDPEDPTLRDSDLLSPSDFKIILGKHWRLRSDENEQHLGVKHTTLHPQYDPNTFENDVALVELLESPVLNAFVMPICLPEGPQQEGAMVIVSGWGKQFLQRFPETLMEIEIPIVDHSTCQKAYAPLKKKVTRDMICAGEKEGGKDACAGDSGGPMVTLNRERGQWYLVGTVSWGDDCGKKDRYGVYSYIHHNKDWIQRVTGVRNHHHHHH

T2: Recombinant human MASP1 enzyme (fragment corresponding to amino acids 297-699, C-terminal His Tag) (human, UniProt P48740 297-699)
T2 sequence: T1 sequence

B1: HIC+SRS-((tBu)A)-PPI-((N-Me)C)+I-NH2 (peptide)
peptide: HICSRS[tBuAla]PPI[NMeC]I-NH2
modifications: disulfide 3-11; N-terminus assumed
SMILES: CC[C@H](C)[C@H](NC(=O)[C@@H]1CSSC[C@H](NC(=O)[C@@H](NC(=O)[C@@H](N)Cc2c[nH]cn2)[C@@H](C)CC)C(=O)N[C@@H](CO)C(=O)N[C@@H](CCCNC(=N)N)C(=O)N[C@@H](CO)C(=O)N[C@@H](CC(C)(C)C)C(=O)N2CCC[C@H]2C(=O)N2CCC[C@H]2C(=O)N[C@@H]([C@@H](C)CC)C(=O)N1C)C(N)=O
B2: (4-(Aminomethyl)benzoic acid)-IC+SRS-((tBu)A)-PPI-(Pen)+IPD-NH2 (peptide)
peptide: [4Amb]ICSRS[tBuAla]PPI[Pen]IPD-NH2
modifications: disulfide 3-11; N-terminus assumed
SMILES: CC[C@H](C)[C@H](NC(=O)c1ccc(CN)cc1)C(=O)N[C@H]1CSSC(C)(C)[C@@H](C(=O)N[C@H](C(=O)N2CCC[C@H]2C(=O)N[C@@H](CC(=O)O)C(N)=O)[C@@H](C)CC)NC(=O)[C@H]([C@@H](C)CC)NC(=O)[C@@H]2CCCN2C(=O)[C@@H]2CCCN2C(=O)[C@H](CC(C)(C)C)NC(=O)[C@H](CO)NC(=O)[C@H](CCCNC(=N)N)NC(=O)[C@H](CO)NC1=O
B3: (Gamma-Abu)-IC+SRS-((tBu)A)-PPI-((N-Me)C)+IPD-NH2 (peptide)
peptide: [GABA]ICSRS[tBuAla]PPI[NMeC]IPD-NH2
modifications: disulfide 3-11; N-terminus assumed
SMILES: CC[C@H](C)[C@H](NC(=O)CCCN)C(=O)N[C@H]1CSSC[C@@H](C(=O)N[C@H](C(=O)N2CCC[C@H]2C(=O)N[C@@H](CC(=O)O)C(N)=O)[C@@H](C)CC)N(C)C(=O)[C@H]([C@@H](C)CC)NC(=O)[C@@H]2CCCN2C(=O)[C@@H]2CCCN2C(=O)[C@H](CC(C)(C)C)NC(=O)[C@H](CO)NC(=O)[C@H](CCCNC(=N)N)NC(=O)[C@H](CO)NC1=O
B4: (Cit)-IC+SRS-((tBu)A)-PPI-(Pen)+IPD-NH2 (peptide)
peptide: [Cit]ICSRS[tBuAla]PPI[Pen]IPD-NH2
modifications: disulfide 3-11; N-terminus assumed
SMILES: CC[C@H](C)[C@H](NC(=O)[C@@H](N)CCCNC(N)=O)C(=O)N[C@H]1CSSC(C)(C)[C@@H](C(=O)N[C@H](C(=O)N2CCC[C@H]2C(=O)N[C@@H](CC(=O)O)C(N)=O)[C@@H](C)CC)NC(=O)[C@H]([C@@H](C)CC)NC(=O)[C@@H]2CCCN2C(=O)[C@@H]2CCCN2C(=O)[C@H](CC(C)(C)C)NC(=O)[C@H](CO)NC(=O)[C@H](CCCNC(=N)N)NC(=O)[C@H](CO)NC1=O
B5: (Pip)-IC+SRS-((tBu)A)-PPI-((N-Me)C)+IPD-NH2 (peptide)
peptide: [Pip]ICSRS[tBuAla]PPI[NMeC]IPD-NH2
modifications: disulfide 3-11; N-terminus assumed
SMILES: CC[C@H](C)[C@H](NC(=O)[C@@H]1CCCCN1)C(=O)N[C@H]1CSSC[C@@H](C(=O)N[C@H](C(=O)N2CCC[C@H]2C(=O)N[C@@H](CC(=O)O)C(N)=O)[C@@H](C)CC)N(C)C(=O)[C@H]([C@@H](C)CC)NC(=O)[C@@H]2CCCN2C(=O)[C@@H]2CCCN2C(=O)[C@H](CC(C)(C)C)NC(=O)[C@H](CO)NC(=O)[C@H](CCCNC(=N)N)NC(=O)[C@H](CO)NC1=O
B6: ((N-Me)G)-IC+SRSLP-(Oic)-I-(Pen)+IP-((3-Carboxy)F)-NH2 (peptide)
peptide: [Sar]ICSRSLP[Oic]I[Pen]IP[Phe(3-COOH)]-NH2
modifications: disulfide 3-11; N-terminus assumed
SMILES: CC[C@H](C)[C@H](NC(=O)CNC)C(=O)N[C@H]1CSSC(C)(C)[C@@H](C(=O)N[C@H](C(=O)N2CCC[C@H]2C(=O)N[C@@H](Cc2cccc(C(=O)O)c2)C(N)=O)[C@@H](C)CC)NC(=O)[C@H]([C@@H](C)CC)NC(=O)[C@@H]2C[C@@H]3CCCC[C@@H]3N2C(=O)[C@@H]2CCCN2C(=O)[C@H](CC(C)C)NC(=O)[C@H](CO)NC(=O)[C@H](CCCNC(=N)N)NC(=O)[C@H](CO)NC1=O
B7: ((N-Me)G)-IC+SRSLPPIC+IPD-NH2 (peptide)
peptide: [Sar]ICSRSLPPICIPD-NH2
modifications: disulfide 3-11; N-terminus assumed
SMILES: CC[C@H](C)[C@H](NC(=O)CNC)C(=O)N[C@H]1CSSC[C@@H](C(=O)N[C@H](C(=O)N2CCC[C@H]2C(=O)N[C@@H](CC(=O)O)C(N)=O)[C@@H](C)CC)NC(=O)[C@H]([C@@H](C)CC)NC(=O)[C@@H]2CCCN2C(=O)[C@@H]2CCCN2C(=O)[C@H](CC(C)C)NC(=O)[C@H](CO)NC(=O)[C@H](CCCNC(=N)N)NC(=O)[C@H](CO)NC1=O
B8: Ac-IC+SRS-((tBu)A)-PPI-(Pen)+IPD-NH2 (peptide)
peptide: Ac-ICSRS[tBuAla]PPI[Pen]IPD-NH2
modifications: disulfide 2-10
SMILES: CC[C@H](C)[C@H](NC(C)=O)C(=O)N[C@H]1CSSC(C)(C)[C@@H](C(=O)N[C@H](C(=O)N2CCC[C@H]2C(=O)N[C@@H](CC(=O)O)C(N)=O)[C@@H](C)CC)NC(=O)[C@H]([C@@H](C)CC)NC(=O)[C@@H]2CCCN2C(=O)[C@@H]2CCCN2C(=O)[C@H](CC(C)(C)C)NC(=O)[C@H](CO)NC(=O)[C@H](CCCNC(=N)N)NC(=O)[C@H](CO)NC1=O
B9: ((N-Me)A)-IC+SRS-((tBu)A)-PPI-((N-Me)C)+IPD-NH2 (peptide)
peptide: [NMeA]ICSRS[tBuAla]PPI[NMeC]IPD-NH2
modifications: disulfide 3-11; N-terminus assumed
SMILES: CC[C@H](C)[C@H](NC(=O)[C@H](C)NC)C(=O)N[C@H]1CSSC[C@@H](C(=O)N[C@H](C(=O)N2CCC[C@H]2C(=O)N[C@@H](CC(=O)O)C(N)=O)[C@@H](C)CC)N(C)C(=O)[C@H]([C@@H](C)CC)NC(=O)[C@@H]2CCCN2C(=O)[C@@H]2CCCN2C(=O)[C@H](CC(C)(C)C)NC(=O)[C@H](CO)NC(=O)[C@H](CCCNC(=N)N)NC(=O)[C@H](CO)NC1=O
B10: AIC+SRSLP-(Oic)-I-((N-Me)C)+IPD-OH (peptide)
peptide: AICSRSLP[Oic]I[NMeC]IPD-OH
modifications: disulfide 3-11; N-terminus assumed
SMILES: CC[C@H](C)[C@H](NC(=O)[C@H](C)N)C(=O)N[C@H]1CSSC[C@@H](C(=O)N[C@H](C(=O)N2CCC[C@H]2C(=O)N[C@@H](CC(=O)O)C(=O)O)[C@@H](C)CC)N(C)C(=O)[C@H]([C@@H](C)CC)NC(=O)[C@@H]2C[C@@H]3CCCC[C@@H]3N2C(=O)[C@@H]2CCCN2C(=O)[C@H](CC(C)C)NC(=O)[C@H](CO)NC(=O)[C@H](CCCNC(=N)N)NC(=O)[C@H](CO)NC1=O
B11: G-((N-Me)I)-C+SRSLPPIC+IPD-NH2 (peptide)
peptide: G[NMeI]CSRSLPPICIPD-NH2
modifications: disulfide 3-11; N-terminus assumed
SMILES: CC[C@H](C)[C@@H]1NC(=O)[C@@H]2CCCN2C(=O)[C@@H]2CCCN2C(=O)[C@H](CC(C)C)NC(=O)[C@H](CO)NC(=O)[C@H](CCCNC(=N)N)NC(=O)[C@H](CO)NC(=O)[C@@H](NC(=O)[C@H]([C@@H](C)CC)N(C)C(=O)CN)CSSC[C@@H](C(=O)N[C@H](C(=O)N2CCC[C@H]2C(=O)N[C@@H](CC(=O)O)C(N)=O)[C@@H](C)CC)NC1=O
B12: ((N-Me)G)-IC+SRSLP-(Oic)-I-(Pen)+IP-(PEG8(28 atoms))-NH2 (peptide)
peptide: [Sar]ICSRSLP[Oic]I[Pen]IP[PEG8]-NH2
modifications: disulfide 3-11; N-terminus assumed
SMILES: CC[C@H](C)[C@H](NC(=O)CNC)C(=O)N[C@H]1CSSC(C)(C)[C@@H](C(=O)N[C@H](C(=O)N2CCC[C@H]2C(=O)NCCOCCOCCOCCOCCOCCOCCOCCOCCC(N)=O)[C@@H](C)CC)NC(=O)[C@H]([C@@H](C)CC)NC(=O)[C@@H]2C[C@@H]3CCCC[C@@H]3N2C(=O)[C@@H]2CCCN2C(=O)[C@H](CC(C)C)NC(=O)[C@H](CO)NC(=O)[C@H](CCCNC(=N)N)NC(=O)[C@H](CO)NC1=O

What follows are binders tested against Recombinant human MASP2 enzyme (fragment corresponding to amino acids 297-686, C-terminal His Tag) (human, UniProt O00187 297-686) (assay: cell-based or functional assay).
Recombinant human MASP2 enzyme (fragment corresponding to amino acids 297-686, C-terminal His Tag), sequence (O00187 other isoform, or with tags, fused parts or gaps limits assumed): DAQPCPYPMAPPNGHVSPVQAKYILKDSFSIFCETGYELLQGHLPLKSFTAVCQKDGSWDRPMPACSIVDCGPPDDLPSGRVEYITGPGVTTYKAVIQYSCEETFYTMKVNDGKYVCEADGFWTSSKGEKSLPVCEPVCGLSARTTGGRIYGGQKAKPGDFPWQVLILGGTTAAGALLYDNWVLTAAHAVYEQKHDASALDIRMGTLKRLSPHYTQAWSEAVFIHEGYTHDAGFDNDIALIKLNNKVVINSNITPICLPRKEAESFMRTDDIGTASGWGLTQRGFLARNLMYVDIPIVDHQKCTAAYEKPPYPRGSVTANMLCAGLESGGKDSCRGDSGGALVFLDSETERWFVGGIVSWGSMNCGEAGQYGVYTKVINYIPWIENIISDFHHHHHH
In the case of B1, the “human MASP2 IC50” value is reported as 140 nM.
With B2 the “human MASP2 IC50” value was 8.1 nM.
With AICSRS[tBuAla]P[Oic]I[NMeC]IPD-OH (disulfide 3-11; also: HCl salt) [AIC+SRS-((tBu)A)-P-(Oic)-I-((N-Me)C)+IPD-OH (HCl salt)] the “human MASP2 IC50” value was 210 nM.
For B3, the “human MASP2 IC50” value was 210 nM.

These binders were tested against T1, recombinant human MASP1 active protease … (assay: cell-based or functional assay).
B4 was tested, and the “human MASP1 IC50” value was 1.7 nM.
With B5 the “human MASP1 IC50” value was 1.9 nM.
In the case of [3‑Amino‑3‑methylbutyric acid]ICSRS[tBuAla]PPI[Pen]IPD-NH2 (disulfide 3-11) [(3-Amino-3-methylbutyric acid)-IC+SRS-((tBu)A)-PPI-(Pen)+IPD-NH2], the “human MASP1 IC50” value is reported as 1.9 nM.

Each binder was assayed against T2, Recombinant human MASP1 enzyme … (assay: cell-based or functional assay).
With [dA]ICSRSLP[Oic]I[Pen]IPD-OH (disulfide 3-11) [aIC+SRSLP-(Oic)-I-(Pen)+IPD-OH] the “human MASP1 IC50” value was 7 nM.
With B6 the “human MASP1 IC50” value was 5 nM.
B7 was tested, and the “human MASP1 IC50” value was 13 nM.
B8 was tested, and the “human MASP1 IC50” value was 16 nM.
With B1 the “human MASP1 IC50” value was 3.8 nM.
For B9, the “human MASP1 IC50” value was 4.4 nM.
With [3‑Amino‑2,2‑dimethylpropionic acid]ICSRS[tBuAla]PPI[Pen]IPD-NH2 (disulfide 3-11) [(3-Amino-2,2-dimethylpropionic acid)-IC+SRS-((tBu)A)-PPI-(Pen)+IPD-NH2] the “human MASP1 IC50” value was 4.2 nM.
For [2‑(Morpholine)acetyl]ICSRS[tBuAla]PPI[Pen]IPD-NH2 (disulfide 3-11) [(2-(Morpholine)acetyl)-IC+SRS-((tBu)A)-PPI-(Pen)+IPD-NH2], the “human MASP1 IC50” value was 15 nM.
In the case of [dA]ICSRSLP[Oic]I[Pen]IPD-NH2 (disulfide 3-11) [aIC+SRSLP-(Oic)-I-(Pen)+IPD-NH2], the “human MASP1 IC50” value is reported as 6.3 nM.
For AICSRS[tBuAla]P[Oic]I[NMeC]IPD-OH (disulfide 3-11; also: HCl salt) [AIC+SRS-((tBu)A)-P-(Oic)-I-((N-Me)C)+IPD-OH (HCl salt)], the “human MASP1 IC50” value was 3.8 nM.
For B10, the “human MASP1 IC50” value was 4.4 nM.
For G[NMeI]CSRSLPPICIPD-NH2 (disulfide 3-11; also: HCl salt) [G-((N-Me)I)-C+SRSLPPIC+IPD-NH2 (HCl salt)], the “human MASP1 IC50” value was 5.5 nM.
With B11 the “human MASP1 IC50” value was 11 nM.
With [Sar]ICSRSLPPICIPD-NH2 (disulfide 3-11; also: HCl salt) [((N-Me)G)-IC+SRSLPPIC+IPD-NH2 (HCl salt)] the “human MASP1 IC50” value was 7.1 nM.
For B12, the “human MASP1 IC50” value was 4.2 nM.

Reference: patent US20210246166A1 (Bayer, published 2021)
